Experimental data as given in publication PMC6315749 (Marine Drugs, 2018).

How the values were obtained:
[1] = biological target: Aplysia californica acetylcholine-binding protein (Aplysia californica); experiment: radioligand binding
[2] = biological target: ligand-binding domain of the human nAChR α9 subunit, de-glycosylated, His-tagged (human) (UniProt Q9UGM1); experiment: […] (20 mM Tris-HCl pH 8.0, 1 mg/mL BSA); […]

Row | Substance | IC50 [1] [nM] | IC50 [2] [nM]
1 | α-conotoxin RgIA, globular isomer (from UniProt P0C1D0 20-32) (peptide) | 194 | > 60000
2 | α-conotoxin RgIA, ribbon isomer (from UniProt P0C1D0 20-32) (peptide) | 1000 | –
3 | αO-conotoxin GeXIVA, beads isomer (peptide) | 2900 | 1630
4 | αO-conotoxin GeXIVA, globular isomer (peptide) | 2900 | –
5 | αO-conotoxin GeXIVA, ribbon isomer (peptide) | 2900 | –
